{
  "source": "patent US9644037B2",
  "about": "“Antibodies that specifically bind ataxia telangiectasia-mutated and RAD3-related kinase phosphorylated at position 1989 and their use” (THE UNITED STATES OF AMERICA, AS REPRESENTED BY THE …, priority 2013, dated 2017)",
  "key": {"[1]": {"target": "T1, pT1989ATR foci in cell nuclei (Homo sapiens, UniProt Q13535)", "T1 construct": "lysates from cells expressing ATR (HT-29, LoVo and DLD-1); endogenous in cells; host or cells: DLD-1 parental, DLD-1 Seckel (Horizon), HT-29, LoVo; with or without gemcitabine", "T1 sequence (Q13535 whole entry)": "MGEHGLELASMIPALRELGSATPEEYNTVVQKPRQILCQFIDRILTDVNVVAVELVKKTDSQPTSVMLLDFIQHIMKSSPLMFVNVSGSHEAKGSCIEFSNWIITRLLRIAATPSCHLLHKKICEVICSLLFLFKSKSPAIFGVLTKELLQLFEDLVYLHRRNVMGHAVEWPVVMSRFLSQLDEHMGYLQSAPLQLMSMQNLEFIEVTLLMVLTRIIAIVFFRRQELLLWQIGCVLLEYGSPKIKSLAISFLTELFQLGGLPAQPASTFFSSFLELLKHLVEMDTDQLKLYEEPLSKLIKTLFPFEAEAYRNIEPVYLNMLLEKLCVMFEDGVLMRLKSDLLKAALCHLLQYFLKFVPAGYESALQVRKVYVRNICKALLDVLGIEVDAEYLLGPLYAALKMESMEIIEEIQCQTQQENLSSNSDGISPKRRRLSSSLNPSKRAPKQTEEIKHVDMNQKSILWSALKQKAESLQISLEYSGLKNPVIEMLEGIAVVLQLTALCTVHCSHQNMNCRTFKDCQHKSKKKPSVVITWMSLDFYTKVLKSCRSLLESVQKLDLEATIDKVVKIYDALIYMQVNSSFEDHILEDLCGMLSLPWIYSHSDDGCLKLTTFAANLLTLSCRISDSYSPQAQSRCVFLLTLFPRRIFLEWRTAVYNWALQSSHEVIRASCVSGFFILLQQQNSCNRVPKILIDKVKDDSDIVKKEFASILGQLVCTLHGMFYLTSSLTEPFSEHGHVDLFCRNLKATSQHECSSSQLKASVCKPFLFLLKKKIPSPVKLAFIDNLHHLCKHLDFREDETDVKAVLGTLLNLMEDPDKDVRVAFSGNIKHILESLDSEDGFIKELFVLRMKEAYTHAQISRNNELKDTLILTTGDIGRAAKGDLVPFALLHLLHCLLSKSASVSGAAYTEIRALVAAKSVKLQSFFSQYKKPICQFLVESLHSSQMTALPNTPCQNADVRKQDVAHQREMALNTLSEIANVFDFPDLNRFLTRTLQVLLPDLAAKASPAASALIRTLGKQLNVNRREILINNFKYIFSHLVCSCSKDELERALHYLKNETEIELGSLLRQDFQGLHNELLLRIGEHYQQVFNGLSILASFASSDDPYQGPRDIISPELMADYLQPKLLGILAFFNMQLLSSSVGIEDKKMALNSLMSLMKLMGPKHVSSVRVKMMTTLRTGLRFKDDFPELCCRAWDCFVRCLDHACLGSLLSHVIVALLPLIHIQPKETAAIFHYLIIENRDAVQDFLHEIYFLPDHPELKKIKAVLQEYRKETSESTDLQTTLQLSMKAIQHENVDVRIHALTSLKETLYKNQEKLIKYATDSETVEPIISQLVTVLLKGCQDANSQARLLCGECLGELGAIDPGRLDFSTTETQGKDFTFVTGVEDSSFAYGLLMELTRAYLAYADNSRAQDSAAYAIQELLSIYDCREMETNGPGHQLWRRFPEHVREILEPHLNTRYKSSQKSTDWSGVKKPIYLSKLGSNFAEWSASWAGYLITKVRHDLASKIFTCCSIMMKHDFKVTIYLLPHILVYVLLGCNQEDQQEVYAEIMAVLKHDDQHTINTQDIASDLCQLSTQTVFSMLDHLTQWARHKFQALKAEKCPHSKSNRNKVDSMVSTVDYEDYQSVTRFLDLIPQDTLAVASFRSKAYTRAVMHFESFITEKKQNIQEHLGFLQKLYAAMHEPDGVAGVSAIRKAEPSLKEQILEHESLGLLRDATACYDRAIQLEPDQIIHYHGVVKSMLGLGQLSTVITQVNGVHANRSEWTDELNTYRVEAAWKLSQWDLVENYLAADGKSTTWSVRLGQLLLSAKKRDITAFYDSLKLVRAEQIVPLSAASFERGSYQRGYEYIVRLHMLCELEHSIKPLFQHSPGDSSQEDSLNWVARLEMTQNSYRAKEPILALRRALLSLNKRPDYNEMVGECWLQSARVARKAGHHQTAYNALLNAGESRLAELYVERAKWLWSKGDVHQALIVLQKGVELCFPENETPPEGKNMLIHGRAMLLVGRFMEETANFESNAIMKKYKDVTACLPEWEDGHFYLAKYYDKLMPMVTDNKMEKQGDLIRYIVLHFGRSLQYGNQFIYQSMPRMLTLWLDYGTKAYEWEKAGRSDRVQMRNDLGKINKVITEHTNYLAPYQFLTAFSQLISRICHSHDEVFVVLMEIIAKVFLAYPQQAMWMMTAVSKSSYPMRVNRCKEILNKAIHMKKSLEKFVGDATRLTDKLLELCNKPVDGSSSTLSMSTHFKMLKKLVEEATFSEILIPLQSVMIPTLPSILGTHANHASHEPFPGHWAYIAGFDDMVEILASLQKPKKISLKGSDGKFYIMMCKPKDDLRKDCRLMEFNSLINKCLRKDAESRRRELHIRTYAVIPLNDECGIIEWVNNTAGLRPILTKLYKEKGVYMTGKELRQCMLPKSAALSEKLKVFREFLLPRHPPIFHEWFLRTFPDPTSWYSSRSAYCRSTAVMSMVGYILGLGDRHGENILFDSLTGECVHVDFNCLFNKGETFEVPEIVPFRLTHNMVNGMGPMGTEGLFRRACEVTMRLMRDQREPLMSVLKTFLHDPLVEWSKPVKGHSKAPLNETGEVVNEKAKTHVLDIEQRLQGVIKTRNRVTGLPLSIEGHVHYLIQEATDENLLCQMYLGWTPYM", "assay": "Immunofluorescence assay (IFA) on FFPE cells, antibody performance", "format": "binding", "procedure": "Subclones were screened by several assays. Screening was performed by enzyme-linked immunosorbant assay (ELISA) and Western blot for subclones of clones #7, 27 and 35 for subcloning. Subclones of clone #7 were then tested in an immunofluroescent (IFA) assay. Clone #7 was then tested in IFA assay. Formalin fixed paraffin embedded (FFPE) blocks were prepared from DLD-1 cells and DLD-1 Seckel cells treated with and without gemcitabine treatment (100 nM for 4 h). Slides were stained using neat hybridomas supernatants and imaged at 20×.\nFormalin fixed paraffin embedded (FFPE) pellets were generated using cells expressing WT ATR (HT29, DLD-1 Parental) or mutated ATR (DLD-1 Seckel (Horizon)), with and without gemcitabine (SIGMA) treatment to induce ATR phosphorylation at pT1989 (Mol. Pharmacol. 2005, 68, 1636-1644). Cells were harvested by trypsinization, transferred into a sterile 50 ml conical centrifuge tubes with media containing 10% serum and pelleted at 1000×g for 5 minutes. Medium was replaced with fresh serum containing medium and centrifuged again at 1000×g, 5 minutes. All but 1 ml (approximately) of medium was removed and the pellet was re-suspended by flicking the tube. Suspended cells were transferred using a 2 ml pipette into a clean 1.5 ml conical Eppendorf tube. Cells were pelleted for 30 seconds at 8,000 rpm in an Eppendorf micro centrifuge. […]"}, "[2]": {"test_system": "ATR pT1989 phospho-peptides conjugated to BSA", "assay": "ELISA against phospho-peptide-BSA conjugates (bleed, hybridoma and clone screening)", "format": "binding, human", "procedure": "(§1) The titer results from the pair of rabbits for each peptide antigen were determined in a colorimetric ELISA against BSA-conjugated peptides. Plates were coated with 50ng/well peptide-BSA conjugate in bicarbonate buffer pH 9.6 and incubated at 4° C. overnight, then and blocked with 1% BSA in TBS. Diluted (1:250-1:256,000) rabbit anti-sera (50 ul/well) were added and incubated at room temperature. Plates were washed with Tris-buffered saline with 0.05% Tween (TBST). Anti-rabbit secondary conjugated to alkaline phosphatase was used for detection with p-nitrophenyl phosphate (PNPP) substrate. Plates were read at 405 nm with a plate reader.\nIndependent screening of blood was conducted. Flat bottom, black, high binding 360 μL plates with clear bottom (VWR catalog #29444-037) were coated with 100 ng/well peptide-BSA conjugate in bicarbonate buffer pH 9.6 (Sigma, catalog # C3041-100CAP) and incubated at 4° C. overnight, then and blocked with ODYSSEY® blocking buffer (LiCor, catalog #927-40010). Diluted (1:250-1:1,000,000) rabbit anti-sera (100 ul/well) were added and incubated at 24 C. Plates were washed with phosphate-buffered saline with 0.05% tween-20 (PBS-T). […] Plates were read at 700 nm with a Licor ODYSSEY® scanner. Images were quantified using Licor ODYSSEY® application software v3.0 (FIGS. 3 and 4).\nCell growth was monitored 2-3 weeks after fusion. […]"}, "[3]": {"target": "T2, pT1989 ATR (Homo sapiens, UniProt Q13535)", "T2 construct": "lysates from cells expressing ATR (HT-29, LoVo and DLD-1); endogenous in cells; host or cells: DLD-1 parental, DLD-1 Seckel (Horizon), HT-29, LoVo; with or without gemcitabine", "T2 sequence (Q13535 whole entry, the tested form may be a part)": "as the sequence (Q13535 whole entry) above", "assay": "Western blot of cell lysates probed with anti-ATR-pT1989 antibodies", "format": "binding", "procedure": "Cell growth was monitored 2-3 weeks after fusion. Hybridoma supernatants were screened by standard colorimetric ELISA against BSA-conjugated peptides as described in section C. The screening process consisted of a Primary screen on 40 plates (using bleed 2 of E5571 at 1:100 dilution as a Positive control) clones (44) with O.D. greater than 0.5 were considered putatively positive and were further expanded to 24-well plate. Confirmatory screen was performed and 6 clones were confirmed positive against phospho-specific peptides (Table 4). Additional screening was performed by ELISA using the same assay as for bleed screening (FIG. 5). Western blotting was done on selected clones #7, 27 and 35 for subcloning (FIG. 6). […]\nDetails for lysate preparation and Western blotting are given in Example I, section E. The antibody detected a single band at about 250 kDa consistent with the predicted molecular weight (MW) for ATR. The antibody also detected an increase in phospho-ATR (pT1989) upon gemcitabine (SIGMA) treatment which is known to increase ATR activity (Mol. Pharmacol. (2005), 68, 1636-1644). […]\nCells were treated for 4 hours with either vehicle (DMSO, 0.01%), 150 nM Gemcitabine (Sigma), 1 uM ATR inhibitor VE-821 or combination of drugs. The antibody detected a single band at about 250 kDa consistent with the predicted MW for ATR. […]"}, "[4]": {"test_system": "non-phospho peptide-BSA conjugates", "assay": "Direct ELISA against non-phospho peptide-BSA conjugates", "format": "binding, human", "procedure": "as §1"}},
  "data": [
    {"molecule": "Clone 7A7: subclone of hybridoma 7; rabbit monoclonal antibody that specifically binds pT1989 ATR (antibody) heavy: QSVEESGGRLVAPGTPLTLTCTVSGIDLMYNAMNWVRQAPGKGLEFIGMIGSGGNTVYASWAKGRFTISKTSTTVGLKMTSLTQEDTATYFCAREGSGGSMDFWGPGTLVTVSSGQPKAPSVFPLAPCCGDTPSSTVTLGCLVKGYLPEPVTVTWNSGTLTNGVRTFPSVRQSSGLYSLSSVVSVTSSSQPVTCNVAHPATNTKVDKTVAPSTCSKPTCPPPELLGGPSVFIFPPKPKDTLMISRTPEVTCVVVDVSQDDPEVQFTWYINNEQVRTARPPLREQQFNSTIRVVSTLPIAHQDWLRGKEFKCKVHNKALPAPIEKTISKARGQPLEPKVYTMGPPREELSSRSVSLTCMINGFYPSDISVEWEKNGKAEDNYKTTPAVLDSDGSYFLYSKLSVPTSEWQRGDVFTCSVMHEALHNHYTQKSISRSPGK light: ALVMTQSPSSVSAAVGGTVTITCQASQSLYNNNYLAWFQQKPGQRPKLLIYKASTLASGVPSRFKGSGSGTQFTLTISDLECEDAATYYCLGEYKDNVDDGNAFGGGTEVVVEGDPVAPTVLIFPPAADQVATGTVTIVCVANKYFPDVTVTWEVDGTTQTTGIENSKTPQNSADCTYNLSSTLTLTSTQYNSHKEYTCKVTQGTTSVVQSFNRGDC", "values": [
      {"measurement": "suitability for pharmacodynamic IFA assay applications", "setting": "[1]", "result": "successfully used"},
      {"measurement": "specificity, titers for BSA conjugated phosphorylated and non-phosphorylated peptides", "setting": "[2]; FIG. 5C", "result": "specific for the phosphorylated polypeptides"},
      {"measurement": "binding to phosphopeptide-BSA conjugates", "setting": "[2]; peptide conjugated at C term or N-term to BSA", "result": "bound the phosphopeptide"},
      {"measurement": "specificity and sensitivity in Western blot", "setting": "[3]", "result": "specific for pT1989 ATR"},
      {"measurement": "detection of pATR in Western blot", "setting": "[3]; antibody dilution 1:50, DLD1 lysates", "result": "detected pATR specifically"},
      {"measurement": "cross-reactivity with non-phospho peptide-BSA conjugates", "setting": "[4]", "result": "did not cross-react"}
    ]}
  ]
}
